B1: Nb95 (VHH)
VHH: QVQLVESGGGLVQAGGSLRLSCAASGRTFSSYSMGWFRQAQGKEREFVATINGNGRDTYYTNSVKGRFTISRDDATNTVYLQMNSLKPEDTAIYYCAADKDVYYGYTSFPNEYEYWGQGTQVTVSS
notes: Cloned in pET-21b(+)
B2: Nb34 (VHH)
VHH: DVQLVESGGGLVQAGGSLRLSCAASGFTFSNYVMYWGRQAPGKGREWVSGIDSDGSDTAYASSVKGRFTISRDNAKNTLYLQMNNLKPEDTALYYCVKSKDPYGSPWTRSEFDDYWGQGTQVTVSS
notes: Cloned in pET-21b(+)
B3: Nb21 (VHH)
VHH: QVQLVESGGGLVQAGGSLRLSCAVSGLGAHRVGWFRRAPGKEREFVAAIGANGGNTNYLDSVKGRFTISRDNAKNTIYLQMNSLKPQDTAVYYCAARDIETAEYTYWGQGTQVTVSS
notes: Cloned in pET-21b(+); also called class I Nb; source: E. coli BL21 (DE3), purified (cobalt resin, Superdex 75)
B4: Nb17 (VHH)
VHH: HVQLVESGGGLVQAGGSLRLSCAASGSIFSSNAMSWYRQAPGKQRELVASITSGGNADYADSVKGRFTISRDKNTVYPEMSSLKPADTAVYYCHAVGQEASAYAPRAYWGQGTQVTVSS
notes: Cloned in pET-21b(+); also called class III Nb; source: E. coli BL21 (DE3), purified (cobalt resin, Superdex 75)

For this assay, the target named is receptor binding domain (RBD) of SARS-CoV-2 spike (SARS-CoV-2 Wuhan-Hu-1, UniProt P0DTC2). The experiment in a line: ELISA. To be noted: both partners purified.
Regarding B1, the binding result is “binds”.
For B2, the binding result is “binds”.
In the case of B3 it was “binds”; in that of B4, “binds”.

The values are drawn from paper PMC8333356 (Nature Communications, 2021).
